From the supplement of paper PMC10126150
± gives the standard deviation of the averaged measurements.

Test system: ATP
Test: switch fluorescence ratio, 500 uM ATP over buffer (Cy3 cluster intensity, sum of 5 cycles each) (fold (ratio)); higher = stronger signal-on switching upon ATP binding; sequences stand for … in TCGTCGGCAGCGTCAGATGTGTATAAGAGACAGTTTTTTTTTTTTTTTTTTTTTTTTT…TC
Conditions: aptamer strand: ATP DNA aptamer (quencher-CACCTGGGGGAGTATTGCGGAGGAAGG + anchor), 100 nM annealed; ATP concentration: 500 uM
Outline: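 Switching-strand clusters labelled with Cy3 on a modified Illumina MiSeq flow-cell were annealed to 100 nM quencher-labelled ATP aptamer, imaged in selection buffer, and re-imaged after 15 min with 500 uM ATP at 22 °C. This was done over five cycles with NaOH stripping and re-annealing in between. The fluorescence ratio is summed target-cycle over summed buffer-cycle Cy3 intensity per cluster, averaged per switch-domain sequence, excluding clusters outside 100-1000 RFU.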
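Note: ATP exposure 15 min at 22 °C before imaging.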

For TGTGGCACAC, the switch fluorescence ratio was 1.01 ± 0.018.
TGTGGGAGCG showed a switch fluorescence ratio of 0.9542 ± 0.0021.
In the case of TGTGGGAGGG, the switch fluorescence ratio is reported as 0.998 ± 0.042.
Sequence TGTGGGGAAA has a switch fluorescence ratio of 0.993 ± 0.03.
TGTGGGGGTT showed a switch fluorescence ratio of 0.986 ± 0.048.
Work on TGTGGGTATT yielded a switch fluorescence ratio of 1.01 ± 0.028.
TGTGGGTCGT was tested, and the switch fluorescence ratio was 1.01 ± 0.026.
TGTGGTACCA showed a switch fluorescence ratio of 1.01 ± 0.023.
TGTGGTCGGT gave a switch fluorescence ratio of 1.015 ± 0.007.
TGTGGTGAA was tested, and the switch fluorescence ratio was 1.01 ± 0.011.
With TGTGGTTAGG the switch fluorescence ratio was 0.993 ± 0.035.
With TGTGGTTTGT the switch fluorescence ratio was 1 ± 0.035.
Work on TGTGGTTTTA yielded a switch fluorescence ratio of 1 ± 0.033.
With TGTGTAGGGG the switch fluorescence ratio was 1.04 ± 0.079.
In the case of TGTGTCCTAA, the switch fluorescence ratio is reported as 1.03 ± 0.026.
Work on TGTGTCCTGC yielded a switch fluorescence ratio of 0.965 ± 0.016.
With TGTGTCGCGG the switch fluorescence ratio was 1 ± 0.033.
TGTGTCGCGT showed a switch fluorescence ratio of 0.983 ± 0.02.
Sequence TGTGTCTACA has a switch fluorescence ratio of 1 ± 0.024.
TGTGTGACAC showed a switch fluorescence ratio of 0.998 ± 0.026.
Sequence TGTGTGAGGT has a switch fluorescence ratio of 1.06 ± 0.027.
TGTGTGCGGT gave a switch fluorescence ratio of 0.997 ± 0.054.
With TGTGTGGGAC the switch fluorescence ratio was 0.988 ± 0.025.
In the case of TGTGTGTGTT, the switch fluorescence ratio is reported as 1.02 ± 0.03.
TGTGTGTTGA showed a switch fluorescence ratio of 1.023 ± 0.0026.
Sequence TGTGTGTTGG has a switch fluorescence ratio of 0.993 ± 0.024.
Work on TGTGTTACGG yielded a switch fluorescence ratio of 0.984 ± 0.023.
TGTGTTGGGT gave a switch fluorescence ratio of 0.98 ± 0.015.
Work on TGTGTTTTTG yielded a switch fluorescence ratio of 1.01 ± 0.015.
TGTTAAATGG gave a switch fluorescence ratio of 0.962 ± 0.014.
TGTTAATAAG showed a switch fluorescence ratio of 0.9618 ± 0.0071.
TGTTAATAGT showed a switch fluorescence ratio of 0.981 ± 0.015.
Work on TGTTAATCAC yielded a switch fluorescence ratio of 1.02 ± 0.034.
TGTTAATTGG gave a switch fluorescence ratio of 1.02 ± 0.043.
For TGTTACGGTG, the switch fluorescence ratio was 1.002 ± 0.0031.
In the case of TGTTACTACG, the switch fluorescence ratio is reported as 1.0494 ± 0.00016.
With TGTTACTAGC the switch fluorescence ratio was 1.03 ± 0.0034.
TGTTAGCCGA was tested, and the switch fluorescence ratio was 1.02 ± 0.026.
With TGTTAGCCTT the switch fluorescence ratio was 1.04 ± 0.017.
Work on TGTTAGTTTG yielded a switch fluorescence ratio of 0.981 ± 0.029.
Work on TGTTATATTA yielded a switch fluorescence ratio of 1.01 ± 0.034.
For TGTTATTGGG, the switch fluorescence ratio was 0.987 ± 0.042.
In the case of TGTTCGCATG, the switch fluorescence ratio is reported as 1.08 ± 0.032.
TGTTCTAGGT was tested, and the switch fluorescence ratio was 1.014 ± 0.0018.
TGTTCTTAAG showed a switch fluorescence ratio of 0.975 ± 0.022.
For TGTTGAAAGG, the switch fluorescence ratio was 0.995 ± 0.046.
Sequence TGTTGAAGAT has a switch fluorescence ratio of 1.005 ± 0.0076.
With TGTTGATA the switch fluorescence ratio was 0.968 ± 0.016.
In the case of TGTTGCCGGG, the switch fluorescence ratio is reported as 1.0541 ± 0.00067.
TGTTGCGGGC was tested, and the switch fluorescence ratio was 1 ± 0.12.
For TGTTGCTTCG, the switch fluorescence ratio was 1.03 ± 0.042.
Work on TGTTGGAAGG yielded a switch fluorescence ratio of 1.01 ± 0.014.
In the case of TGTTGGCACA, the switch fluorescence ratio is reported as 1.015 ± 0.0012.
In the case of TGTTGGGGTA, the switch fluorescence ratio is reported as 1.03 ± 0.06.
For TGTTGGGTGG, the switch fluorescence ratio was 0.9948 ± 0.00021.
Sequence TGTTGGTAGG has a switch fluorescence ratio of 0.964 ± 0.03.
In the case of TGTTGTAAAC, the switch fluorescence ratio is reported as 1.05 ± 0.032.
With TGTTGTAGCT the switch fluorescence ratio was 1.02 ± 0.031.
TGTTGTGACA gave a switch fluorescence ratio of 0.967 ± 0.026.
TGTTGTGGGT showed a switch fluorescence ratio of 1.002 ± 0.0063.
Sequence TGTTGTTAAA has a switch fluorescence ratio of 0.982 ± 0.012.
Sequence TGTTGTTGAT has a switch fluorescence ratio of 0.985 ± 0.036.
With TGTTTAAATT the switch fluorescence ratio was 0.983 ± 0.013.
TGTTTAAGCG was tested, and the switch fluorescence ratio was 0.958 ± 0.085.
TGTTTAAGGT gave a switch fluorescence ratio of 0.9871 ± 0.0045.
With TGTTTATGAG the switch fluorescence ratio was 0.9849 ± 0.0034.
Work on TGTTTATGGT yielded a switch fluorescence ratio of 1.02 ± 0.017.
TGTTTCAATT gave a switch fluorescence ratio of 1.02 ± 0.021.
With TGTTTCGACG the switch fluorescence ratio was 0.986 ± 0.038.
Sequence TGTTTGATGT has a switch fluorescence ratio of 0.983 ± 0.019.
Work on TGTTTGGGAG yielded a switch fluorescence ratio of 1.01 ± 0.031.
TGTTTGTATC gave a switch fluorescence ratio of 1.01 ± 0.016.
Sequence TGTTTGTGGC has a switch fluorescence ratio of 1.12 ± 0.16.
Work on TGTTTTATCG yielded a switch fluorescence ratio of 0.999 ± 0.028.
With TGTTTTATG the switch fluorescence ratio was 1.007 ± 0.0086.
For TGTTTTCGCT, the switch fluorescence ratio was 0.9969 ± 0.0097.
TGTTTTCGT gave a switch fluorescence ratio of 1.02 ± 0.011.
Sequence TGTTTTGACG has a switch fluorescence ratio of 1.07 ± 0.085.
TGTTTTGAGC gave a switch fluorescence ratio of 1 ± 0.037.
Sequence TGTTTTTAAT has a switch fluorescence ratio of 0.99 ± 0.025.
TGTTTTTGGA was tested, and the switch fluorescence ratio was 1 ± 0.026.
TTAAAAAAAT was tested, and the switch fluorescence ratio was 1.73 ± 1.4.
With TTAAAAAACT the switch fluorescence ratio was 1.02 ± 0.031.
TTAAAAATAG gave a switch fluorescence ratio of 0.976 ± 0.027.
With TTAAAAATGG the switch fluorescence ratio was 1.02 ± 0.018.
